{
  "source": "patent US20230365705A1",
  "about": "(DYNAMICURE BIOTECHNOLOGY, published 2023)",
  "binders": {"B1": {"name": "h16E4 (humanized 16E4, VH4+VL6) (antibody, V domains shown)", "VH": "QVQLVQSGAEVKKPGASVKVSCKASGYTFTSYWMHWVRQAPGQGLEWMGEIDPSASYTYYNQKFKGRVTMTRDKSSSTVYMELSSLTSEDSAVYYCARSVYYGNKYFDVWGAGTTVTVSS", "VL": "DIQMTQSPSTLSASVGDRVTITCKASQSVDYAGDSYMNWYQQKPGKAPKLLIYAASNLESGVPSRFSGSGSGTEFTLTISSLQPDDFATYYCQQTNEDPRTFGGGTKLEIK", "notes": "Detected with anti-human IgG, so a human Fc"}, "B2": {"name": "h7F3 (humanized 7F3, VH3+VL3) (antibody, human IgG1, V domains shown)", "VH": "QVQLVQSGAEVKKPGASVKVSCKASGYTFTDYEMHWVRQAPGQGLEWMGGIDPETGDTAYNQNFKGRVTMTTDTSTSTAYMELRSLTSDDTAVYYCTNYGNLYYYAMDYWGQGTSVTVSS", "VL": "EIVLTQSPSSLSASVGDRVTITCRASSSVSSSYLHWYQQKPGKAPKLLIYSTSNLAFGVPSRFSGSGSGTSYTFTISSLQPEDIATYYCQQYSGYPLTFGSGTKLEIK", "notes": "also called humanized 7F3-hIgG1"}, "B3": {"name": "16E4 (hybridoma) (antibody, IgG2a, V domains shown)", "VH": "QVQLQQPGAELVKPGASVKLSCKASGYTFTSYWMHWVKQRPGQGLEWIGEIDPSASYTYYNQKFKGKATLTVDKSSSTAYMQLSSLTSEDSAVYYCARSVYYGNKYFDVWGAGTTVTVSS", "VL": "not shown", "notes": "also called 16E4 mAb; 16E4 mIgG2a"}},
  "key": {"[1]": {"target": "T1, Human CD93 recombinant protein (Sino Biological Inc, Catalog #12589-H08H) (human, UniProt Q9NPY3 22-580)", "T1 construct": "Biotinylated (EZ-LINK NHS-PEG4 biotin) in the BLI assays; also called hCD93; His-tagged human CD93", "T1 sequence (looked up)": "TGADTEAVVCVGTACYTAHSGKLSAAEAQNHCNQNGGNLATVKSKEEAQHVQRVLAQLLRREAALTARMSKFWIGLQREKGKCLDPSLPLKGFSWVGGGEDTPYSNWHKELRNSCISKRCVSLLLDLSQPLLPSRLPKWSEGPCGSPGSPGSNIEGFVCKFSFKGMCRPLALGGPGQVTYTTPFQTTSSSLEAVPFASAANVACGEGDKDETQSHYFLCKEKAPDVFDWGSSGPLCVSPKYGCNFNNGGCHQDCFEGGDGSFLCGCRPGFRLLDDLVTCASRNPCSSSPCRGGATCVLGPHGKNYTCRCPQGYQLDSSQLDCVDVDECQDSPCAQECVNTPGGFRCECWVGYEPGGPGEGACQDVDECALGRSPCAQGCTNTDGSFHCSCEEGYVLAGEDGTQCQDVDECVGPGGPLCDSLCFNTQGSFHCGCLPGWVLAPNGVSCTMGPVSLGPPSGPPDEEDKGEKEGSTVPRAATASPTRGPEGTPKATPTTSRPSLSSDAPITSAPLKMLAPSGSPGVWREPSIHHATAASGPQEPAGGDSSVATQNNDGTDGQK", "test": "BLI (Octet QKe), biotinylated human CD93 on streptavidin biosensors; antibody stored 4 weeks at 40 C", "method": "The binding affinity of anti-CD93 antibodies was determined with bio-layer interferometry using Octet QKe (Fortebio). […] Human CD93 recombinant protein (Sino Biological Inc, Catalog #12589-H08H) was biotinylated using EZ-LINK NHS-PEG4 biotin (Thermo Fisher Scientific). Streptavidin biosensors (Fortebio) were used to load biotinylated CD93 protein (300 seconds in 5 μg/ml). Baseline was stabilized for 60 seconds in 1× kinetics buffer (Fortebio) before anti-CD93 antibodies, at a serial dilution, were allowed to associate for 300 seconds with captured protein. Then the sensors were dissociated in 1× kinetics buffer for 600 seconds. […] (FIG. 42)."}, "[2]": {"target": "T2, Human CD93 on cells (human CD93 expressing CHO cells; HUVEC, U937 and KG1a cells) (human, UniProt Q9NPY3 22-652)", "T2 construct": "whole, on cells; also called hCD93 expressing CHO cells; hCD93 CHO cells", "T2 sequence (looked up)": "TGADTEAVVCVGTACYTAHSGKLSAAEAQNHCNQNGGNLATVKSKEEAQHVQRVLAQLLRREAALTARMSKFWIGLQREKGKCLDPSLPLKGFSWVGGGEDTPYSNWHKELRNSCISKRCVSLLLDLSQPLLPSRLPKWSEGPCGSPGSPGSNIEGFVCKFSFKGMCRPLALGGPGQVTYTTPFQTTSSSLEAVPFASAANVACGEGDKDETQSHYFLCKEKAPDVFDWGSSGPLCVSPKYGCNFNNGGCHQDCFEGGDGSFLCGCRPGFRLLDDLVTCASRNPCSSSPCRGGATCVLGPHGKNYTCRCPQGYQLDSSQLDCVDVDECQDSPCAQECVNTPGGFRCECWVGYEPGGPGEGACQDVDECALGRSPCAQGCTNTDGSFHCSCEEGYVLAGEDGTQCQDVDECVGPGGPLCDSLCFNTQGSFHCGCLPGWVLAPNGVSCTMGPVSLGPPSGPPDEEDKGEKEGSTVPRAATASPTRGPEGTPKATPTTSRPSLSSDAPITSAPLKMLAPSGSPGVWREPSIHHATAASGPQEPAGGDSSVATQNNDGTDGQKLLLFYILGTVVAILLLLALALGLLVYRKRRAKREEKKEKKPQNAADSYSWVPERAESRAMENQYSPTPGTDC", "test": "summary table, column FACS (HUVEC cells); 2 weeks at 40 C", "method": "HUVEC cells were detached by incubation with TrypLE reagents (Thermo Fisher), which preserves the integrity of CD93 on the cell surface. Then the cells were incubated with serial diluted anti-CD93 antibodies for 30 minutes at 4° C. After washing by FACS buffer, the cells were incubated with Alexa Fluor 647 conjugated anti-human IgG (Jackson ImmunoResearch) for 30 minutes in 4° C. After washing by FACS buffer twice, the samples were acquired in NovoCyte Flow Cytometer and analyzed by NovoExpress software."}, "[3]": {"target": "T3, cynomolgus CD93 protein (made in-house) (cynomolgus, UniProt A0A2K5VH53 22-580)", "T3 construct": "Biotinylated in BLI; also called cyno CD93; cynoCD93", "T3 sequence": "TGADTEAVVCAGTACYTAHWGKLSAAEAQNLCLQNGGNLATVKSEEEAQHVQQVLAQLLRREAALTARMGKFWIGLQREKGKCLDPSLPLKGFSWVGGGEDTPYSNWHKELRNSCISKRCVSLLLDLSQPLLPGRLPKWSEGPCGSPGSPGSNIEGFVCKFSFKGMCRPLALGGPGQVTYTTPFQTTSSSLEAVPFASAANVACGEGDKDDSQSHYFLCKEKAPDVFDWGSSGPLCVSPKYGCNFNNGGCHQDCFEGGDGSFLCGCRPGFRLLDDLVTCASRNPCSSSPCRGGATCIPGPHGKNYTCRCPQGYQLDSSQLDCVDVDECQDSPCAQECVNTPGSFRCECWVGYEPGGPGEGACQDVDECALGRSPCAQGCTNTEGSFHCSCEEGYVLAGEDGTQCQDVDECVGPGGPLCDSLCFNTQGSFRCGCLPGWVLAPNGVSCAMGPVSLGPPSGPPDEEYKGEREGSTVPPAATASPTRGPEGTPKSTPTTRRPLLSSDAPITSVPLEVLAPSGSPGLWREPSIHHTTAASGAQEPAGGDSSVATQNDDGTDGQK", "test": "BLI (Octet QKe), biotinylated CD93 on streptavidin biosensors; table under the cynoCD93 panels", "method": "(§1) The binding affinity of anti-CD93 antibodies were determined with bio-layer interferometry using Octet QKe (Fortebio). Human CD93 recombinant protein (Sino Biological Inc, Catalog #12589-H08H) or cynomolgus CD93 protein (made in-house) were biotinylated using EZ-LINK NHS-PEG4 biotin (Thermo Fisher Scientific). Streptavidin biosensors (Fortebio) were used to load biotinylated CD93 protein (300 seconds at 5 μg/ml). The baseline was stabilized for 60 seconds in a 1× kinetics buffer (Fortebio) before serially diluted anti-CD93 antibodies were allowed to associate for 300 seconds with captured protein. The sensors were dissociated in a 1× kinetics buffer for 600 seconds."}, "[4]": {"target": "T1, Human CD93 recombinant protein (Sino …)", "test": "BLI (Octet QKe), biotinylated CD93 on streptavidin biosensors; table under the hCD93 panels", "method": "as §1"}},
  "data": [
    {"binder": "B1", "values": [
      {"measurement": "Kd", "setting": "[1]", "result": 0.112, "unit": "nM"},
      {"measurement": "koff", "setting": "[1]", "result": "3.24e-05", "unit": "s⁻¹"},
      {"measurement": "kon", "setting": "[1]", "result": 289000, "unit": "M⁻¹ s⁻¹"}
    ]},
    {"binder": "B2", "values": [
      {"measurement": "EC50", "setting": "[2]", "result": 1.17, "unit": "nM"}
    ]},
    {"binder": "B3", "values": [
      {"measurement": "Kd", "setting": "[3]", "result": 0.446, "unit": "nM"},
      {"measurement": "kon", "setting": "[3]", "result": 663000, "unit": "M⁻¹ s⁻¹"},
      {"measurement": "Kd", "setting": "[4]", "result": 0.447, "unit": "nM"},
      {"measurement": "koff", "setting": "[4]", "result": 0.000429, "unit": "s⁻¹"},
      {"measurement": "kon", "setting": "[4]", "result": 960000, "unit": "M⁻¹ s⁻¹"}
    ]}
  ]
}
